Drawing on article PMC3581772, this text covers decrease of ThT fluorescence and suppression of ThT signal for one substance.

The target in assay [1] is T1, I59T human lysozyme (human) (UniProt P61626).
T1 sequence: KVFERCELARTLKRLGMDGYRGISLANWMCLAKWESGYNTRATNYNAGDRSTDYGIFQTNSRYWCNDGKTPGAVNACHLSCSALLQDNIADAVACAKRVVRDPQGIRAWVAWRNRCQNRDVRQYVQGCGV

Assay [2] addresses amyloid β peptide Aβ(1–42) (UniProt P05067).

Sequence of trypsin-activated α2M (P01023 whole entry, looked up): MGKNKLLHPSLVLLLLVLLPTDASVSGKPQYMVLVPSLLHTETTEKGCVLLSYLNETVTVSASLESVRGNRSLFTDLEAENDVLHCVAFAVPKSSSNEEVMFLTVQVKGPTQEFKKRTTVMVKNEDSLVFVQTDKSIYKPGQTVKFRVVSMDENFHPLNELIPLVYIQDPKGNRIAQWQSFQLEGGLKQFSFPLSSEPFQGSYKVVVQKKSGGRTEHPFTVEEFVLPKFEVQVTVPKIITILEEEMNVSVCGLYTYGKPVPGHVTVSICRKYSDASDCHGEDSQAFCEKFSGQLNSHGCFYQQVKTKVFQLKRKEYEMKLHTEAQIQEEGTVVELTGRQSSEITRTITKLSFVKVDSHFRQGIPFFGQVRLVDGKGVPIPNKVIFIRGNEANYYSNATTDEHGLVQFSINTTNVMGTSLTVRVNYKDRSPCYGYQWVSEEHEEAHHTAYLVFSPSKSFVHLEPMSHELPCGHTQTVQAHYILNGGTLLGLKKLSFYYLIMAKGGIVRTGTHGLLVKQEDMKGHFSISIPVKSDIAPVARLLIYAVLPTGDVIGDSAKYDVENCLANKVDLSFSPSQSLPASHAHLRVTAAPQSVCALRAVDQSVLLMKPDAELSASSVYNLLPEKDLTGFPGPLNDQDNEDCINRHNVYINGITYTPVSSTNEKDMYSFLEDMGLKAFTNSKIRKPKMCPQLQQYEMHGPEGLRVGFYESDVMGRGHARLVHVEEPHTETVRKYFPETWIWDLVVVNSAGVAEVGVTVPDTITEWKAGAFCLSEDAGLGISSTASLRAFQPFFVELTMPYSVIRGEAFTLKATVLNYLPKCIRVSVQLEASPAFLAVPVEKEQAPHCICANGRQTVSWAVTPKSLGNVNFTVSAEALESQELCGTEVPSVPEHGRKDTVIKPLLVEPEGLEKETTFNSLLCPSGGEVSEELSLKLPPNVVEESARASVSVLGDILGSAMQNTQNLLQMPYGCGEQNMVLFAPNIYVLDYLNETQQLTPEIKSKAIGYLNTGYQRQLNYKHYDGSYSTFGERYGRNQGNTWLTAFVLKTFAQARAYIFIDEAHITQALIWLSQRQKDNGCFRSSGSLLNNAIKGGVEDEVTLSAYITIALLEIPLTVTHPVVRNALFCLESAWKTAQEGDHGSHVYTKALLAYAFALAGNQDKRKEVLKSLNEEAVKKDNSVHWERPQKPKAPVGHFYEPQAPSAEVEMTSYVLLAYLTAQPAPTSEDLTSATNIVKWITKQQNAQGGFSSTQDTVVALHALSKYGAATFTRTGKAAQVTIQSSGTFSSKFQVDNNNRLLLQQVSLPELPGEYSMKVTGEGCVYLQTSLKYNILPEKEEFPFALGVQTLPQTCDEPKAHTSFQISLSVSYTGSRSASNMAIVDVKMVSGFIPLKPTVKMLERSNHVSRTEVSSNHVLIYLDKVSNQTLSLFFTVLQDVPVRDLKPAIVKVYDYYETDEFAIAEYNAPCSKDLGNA

In assay [1], “trypsin-activated α2M (from UniProt P01023 24-1474) (complex)” registered a decrease of ThT fluorescence at the endpoint of I59T lysozyme fibril formation, lysozyme-to-α2M 10:1 of over 90%. In assay [2], the suppression of ThT signal at the endpoint of Aβ(1–42) fibril formation, Aβ-to-α2M 10:1 is over 80%.
